Where no end group is shown, it is not given here. [ ]: non-standard residue; d: D form.
T1: FPR1 (UniProt P21462 1-350)
T1 sequence (looked up): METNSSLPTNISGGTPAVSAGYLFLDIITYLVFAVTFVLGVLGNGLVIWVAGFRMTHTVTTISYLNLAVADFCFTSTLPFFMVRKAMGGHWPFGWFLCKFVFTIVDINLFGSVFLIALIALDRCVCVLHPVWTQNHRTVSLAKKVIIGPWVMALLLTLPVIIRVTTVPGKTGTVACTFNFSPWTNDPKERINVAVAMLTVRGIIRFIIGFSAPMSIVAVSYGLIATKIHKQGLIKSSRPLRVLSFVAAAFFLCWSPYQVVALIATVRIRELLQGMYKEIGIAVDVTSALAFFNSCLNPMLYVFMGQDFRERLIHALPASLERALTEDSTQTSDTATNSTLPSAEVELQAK

T2: FPRL1 (UniProt P25090 1-351)
T2 sequence (looked up): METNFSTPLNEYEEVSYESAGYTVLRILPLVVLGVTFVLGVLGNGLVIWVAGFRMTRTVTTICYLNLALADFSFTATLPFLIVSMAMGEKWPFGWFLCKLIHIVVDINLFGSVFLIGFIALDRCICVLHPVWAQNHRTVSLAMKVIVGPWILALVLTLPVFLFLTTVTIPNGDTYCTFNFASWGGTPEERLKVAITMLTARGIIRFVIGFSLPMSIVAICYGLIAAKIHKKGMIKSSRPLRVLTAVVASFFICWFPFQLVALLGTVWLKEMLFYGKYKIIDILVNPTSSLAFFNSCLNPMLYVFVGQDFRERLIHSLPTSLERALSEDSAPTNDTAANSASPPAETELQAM


Key:
Experiment in all cases: cell-based or functional assay
FPR1 = biological target: T1, FPR1
FPRL1 = biological target: T2, FPRL1
F2RL1 = F2RL1 (UniProt P55085 26-397, limits assumed)

| EC80, arrestin, agonist mode (FPR1) [nM] | EC80, arrestin, agonist mode (FPRL1) [nM] | EC50 (RC50), arrestin, agonist mode (F2RL1) [nM] | EC80, arrestin, agonist mode (F2RL1) [nM] | Binder |
| --- | --- | --- | --- | --- |
| 25.2 | 11.8 |  |  | WKYMV[dM]-NH2 [WKYMVm-NH2] |
|  |  | 552 | 2130 | SLIGRL-NH2 [SLIGRL-NH2] |

From patent publication US20260184748A1 (University of Pennsylvania, published 2026)
